The values below come from US20180155451A1 (published 2018).

Like-named read-outs stand apart in the source and are kept apart here.

Common to all, as to experiment: SPR (Biacore), antibody captured on chip, FcgR extracellular domain as analyte
Background: Surface plasmon resonance follows binding to a sensor surface in real time, without labels.

The target of test [1] is T1, FcgRIIa R (human, UniProt P12318 34-217).
T1 construct: extracellular domain; also called FcγRIIa R; FcγRIIa type R; not shown: His tag attached to the C terminus
T1 sequence (looked up): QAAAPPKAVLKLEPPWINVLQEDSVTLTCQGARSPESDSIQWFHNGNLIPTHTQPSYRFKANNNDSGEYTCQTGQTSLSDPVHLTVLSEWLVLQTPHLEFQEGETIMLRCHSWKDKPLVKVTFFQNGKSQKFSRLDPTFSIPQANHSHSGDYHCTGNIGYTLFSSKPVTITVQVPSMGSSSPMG
As to the method:
(§1) Analysis of interaction between obj ective antibody and the FcγR was carried out using Biacore T100 (GE Healthcare), Biacore T200, Biacore A100, and Biacore 4000. HBS-EP+ (GE Healthcare) was used as the running buffer, and the measurement temperature was set to 25° C. Chips produced by immobilizing the antigen peptide by the amine coupling method to a Series S sensor Chip CM5 (GE Healthcare), chips produced by allowing preliminarily biotinylated antigen peptides to interact with and immobilize onto a Series S Sensor Chip SA (certified) (GE Healthcare), chips produced by immobilizing Protein L (ACTIGEN, BioVision) to Series S Sencor Chip CM5 (GE Healthcare), or chips produced by immobilizing Protein A/G (Thermo Scientific) to Series S Sencor Chip CM5 (GE Healthcare) were used. Antibodies of interest were captured onto these chips, and allowed to interact to each FcγR diluted with running buffer. To regenerate and repeatedly use the chip, the antibodies captured onto the chip were washed off by reacting 10 mM glycine-HCl, pH 1.5.

The target in test [2] is T2, FcgRIIa H (human, UniProt P12318 34-217).
T2 construct: extracellular domain; also called FcγRIIa H; FcγRIIa type H; not shown: His tag attached to the C terminus
T2 sequence (looked up): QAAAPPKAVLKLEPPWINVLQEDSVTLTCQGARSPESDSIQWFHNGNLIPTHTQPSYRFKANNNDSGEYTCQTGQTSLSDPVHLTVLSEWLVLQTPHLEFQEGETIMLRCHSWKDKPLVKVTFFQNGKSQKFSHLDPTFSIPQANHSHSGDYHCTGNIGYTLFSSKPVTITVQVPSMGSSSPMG
As to the method: as §1

The target of test [3] is T3, FcgRIIIa F (human, UniProt P08637 17-208).
T3 construct: extracellular domain; also called FcγRIIIa F; not shown: His tag attached to the C terminus
T3 sequence (P08637 17-208): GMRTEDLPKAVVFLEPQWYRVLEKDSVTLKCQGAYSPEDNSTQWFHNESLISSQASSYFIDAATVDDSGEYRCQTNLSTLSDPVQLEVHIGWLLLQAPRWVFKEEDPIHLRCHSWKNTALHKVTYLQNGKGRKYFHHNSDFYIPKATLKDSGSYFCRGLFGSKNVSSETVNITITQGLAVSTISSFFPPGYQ
As to the method: as §1

Test [4] concerns the target T4, FcgRIIIa V (human, UniProt P08637 17-208).
T4 construct: extracellular domain; also called FcγRIIIa V; not shown: His tag attached to the C terminus
As to the method:
as §1

The next test has as its target T5, FcgRIa (human, UniProt P12314 16-292).
T5 construct: extracellular domain; Expressed in FreeStyle293 cells and purified; used as analyte in Biacore; also called FcγRIa; FcγRI; not shown: His tag attached to the C terminus
As to the method: (§2) H240-Kn113 (SEQ ID NO: 92) resulting from introduction of Y234E and Y235N into H240-Kn072, H240-Kn115 (SEQ ID NO: 93) resulting from introduction of S239M into H240-Kn072, and H240-Kn125 (SEQ ID NO: 94) resulting from introduction of Y235Q and S239M into H240-Kn072 were prepared according to the method described in Reference Example 1.
as §1

Test [5] addresses T1, FcgRIIa R. As to the method: as §2, §1
The source holds these as a separate data set.

The target in test [6] is T2, FcgRIIa H. As to the method:
as §2, §1
The source holds these as a separate data set.

Another test concerns the target T6, FcgRIIb (human, UniProt P31994 43-217).
T6 construct: extracellular domain; Expressed in FreeStyle293 cells and purified; used as analyte in Biacore; also called FcγRIIb; CD32B; not shown: His tag attached to the C terminus
T6 sequence (looked up): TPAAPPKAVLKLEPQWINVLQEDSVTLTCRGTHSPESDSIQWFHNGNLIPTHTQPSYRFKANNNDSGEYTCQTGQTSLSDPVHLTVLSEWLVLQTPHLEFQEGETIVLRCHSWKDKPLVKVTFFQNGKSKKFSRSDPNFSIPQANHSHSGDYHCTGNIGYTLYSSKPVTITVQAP
As to the method:
as §2, §1

Test [7] has as its target T3, FcgRIIIa F. As to the method: as §2, §1
The source holds these as a separate data set.

Test [8] concerns the target T4, FcgRIIIa V. As to the method:
as §2, §1
This is another data set of the same source.

T4 sequence (P08637 17-208 F176V limits assumed): as the sequence (P08637 17-208) above, with F160V counted along it
T5 sequence (P12314 16-292): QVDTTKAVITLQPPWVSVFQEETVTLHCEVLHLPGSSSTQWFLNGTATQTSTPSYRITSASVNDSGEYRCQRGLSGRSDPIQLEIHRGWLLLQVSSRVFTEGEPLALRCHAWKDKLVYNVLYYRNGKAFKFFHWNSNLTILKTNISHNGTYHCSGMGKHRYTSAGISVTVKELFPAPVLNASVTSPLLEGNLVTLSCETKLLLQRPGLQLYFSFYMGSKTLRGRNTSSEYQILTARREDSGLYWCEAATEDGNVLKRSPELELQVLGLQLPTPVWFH

B1: H240-Kn067/H240-Hl136/L73-k0 (antibody, human IgG1, kappa)
heavy 1: QDQLVQSGAEVKKPGASVKVSCKASGFNIKDTYIQWVRQAPGQGLEWMGRIDPLRKQTKYREKFEGRVTITADTSTNTAYMELSSLRSEDTAVYYCVRSGREFDYWGQGTLVTVSSASTKGPSVFPLAPSSKSTSGGTAALGCLVKDYFPEPVTVSWNSGALTSGVHTFPAVLQSSGLYSLSSVVTVPSSSLGTQTYICNVNHKPSNTKVDKKVEPKSCDKTHTCPPCPAPEYYWGPSVFLFPPKPKDTLMISRTPEVTCVVVDVSDEDPEVKFNWYVDGVEVHNAKTKPREEQYNATYRVVSVLTVLHQDWLNGKEYKCKVSNKDLPAPIEKTISKAKGQPREPQVCTLPPSRDELTKNQVSLWCLVKGFYPSDIAVEWESNGQPENNYKTTPPVLDSDGSFFLYSKLTVDKSRWQQGNVFSCSVMHEALHNHYTQKSLSLSP
heavy 2: QDQLVQSGAEVKKPGASVKVSCKASGFNIKDTYIQWVRQAPGQGLEWMGRIDPLRKQTKYREKFEGRVTITADTSTNTAYMELSSLRSEDTAVYYCVRSGREFDYWGQGTLVTVSSASTKGPSVFPLAPSSKSTSGGTAALGCLVKDYFPEPVTVSWNSGALTSGVHTFPAVLQSSGLYSLSSVVTVPSSSLGTQTYICNVNHKPSNTKVDKKVEPKSCDKTHTCPPCPAPEYYWGPSVFLFPPKPKDTLMISRTPEVTCVVVDVSDEDPEVKFNWYVDGVEVHNAKTKPREEQYNATYRVVSVLTVLHQDWLNGKEYKCKVSNKDLPAPIEKTISKAKGQPREPQVYTLPPSRCELTKNQVSLSCAVKGFYPSDIAVEWESNGQPENNYKTTPPVLDSDGSFFLVSKLTVDKSRWQQGNVFSCSVMHEALHNHYTQKSLSLSP
light: DIQMTQSPSSLSASVGDRVTITCRASQDIHKYIAWYQQKPGQAPRLLIQYTSTLQPGVPSRFSGSGSGTDYTFTISSLQPEDIATYYCLQYEQLRTFGGGTKVEIKRTVAAPSVFIFPPSDEQLKSGTASVVCLLNNFYPREAKVQWKVDNALQSGNSQESVTEQDSKDSTYSLSSTLTLSKADYEKHKVYACEVTHQGLSSPVTKSFNRGEC
notes: Anti-EREG IgG1 called homodimerized: both H chains (knob and hole) carry L234Y/L235Y/G236W/H268D/S298A/A327D; also called H240-Kn067/H240-HI136/L73-k0
B1: the Kd (usually the constant that tells how readily two partners part at equilibrium) was determined as 950 nM in the test with FcgRIIa R [1], 2100 nM in the test with FcgRIIa H [2], 960 nM in the test with FcgRIIIa F [3] and 340 nM with FcgRIIIa V [4].

B2: H240-Kn133/H240-Hl068/L73-k0 (antibody, human IgG1, kappa)
heavy 1: QDQLVQSGAEVKKPGASVKVSCKASGFNIKDTYIQWVRQAPGQGLEWMGRIDPLRKQTKYREKFEGRVTITADTSTNTAYMELSSLRSEDTAVYYCVRSGREFDYWGQGTLVTVSSASTKGPSVFPLAPSSKSTSGGTAALGCLVKDYFPEPVTVSWNSGALTSGVHTFPAVLQSSGLYSLSSVVTVPSSSLGTQTYICNVNHKPSNTKVDKKVEPKSCDKTHTCPPCPAPELLGGPSVFLFPPKPKDTLMISRTPEVTCVVVDVSHEEPEVKFNWYVDGVEVHNAKTKPREEQYNSTYRVVSVLTVLHQDWLNGKEYKCKVSNDALPKPIEETISKAKGQPREPQVCTLPPSRDELTKNQVSLWCLVKGFYPSDIAVEWESNGQPENNYKTTPPVLDSDGSFFLYSKLTVDKSRWQQGNVFSCSVMHEALHNHYTQKSLSLSP
heavy 2: QDQLVQSGAEVKKPGASVKVSCKASGFNIKDTYIQWVRQAPGQGLEWMGRIDPLRKQTKYREKFEGRVTITADTSTNTAYMELSSLRSEDTAVYYCVRSGREFDYWGQGTLVTVSSASTKGPSVFPLAPSSKSTSGGTAALGCLVKDYFPEPVTVSWNSGALTSGVHTFPAVLQSSGLYSLSSVVTVPSSSLGTQTYICNVNHKPSNTKVDKKVEPKSCDKTHTCPPCPAPELLGGPSVFLFPPKPKDTLMISRTPEVTCVVVDVSHEEPEVKFNWYVDGVEVHNAKTKPREEQYNSTYRVVSVLTVLHQDWLNGKEYKCKVSNDALPKPIEETISKAKGQPREPQVYTLPPSRCELTKNQVSLSCAVKGFYPSDIAVEWESNGQPENNYKTTPPVLDSDGSFFLVSKLTVDKSRWQQGNVFSCSVMHEALHNHYTQKSLSLSP
light: DIQMTQSPSSLSASVGDRVTITCRASQDIHKYIAWYQQKPGQAPRLLIQYTSTLQPGVPSRFSGSGSGTDYTFTISSLQPEDIATYYCLQYEQLRTFGGGTKVEIKRTVAAPSVFIFPPSDEQLKSGTASVVCLLNNFYPREAKVQWKVDNALQSGNSQESVTEQDSKDSTYSLSSTLTLSKADYEKHKVYACEVTHQGLSSPVTKSFNRGEC
notes: Anti-EREG IgG1 called homodimerized: both H chains carry D270E/K326D/A330K/K334E; also called H240-Kn133/H240-HI068/L73-k0
As to B2, the Kd with FcgRIIa R [1] is 450 nM; with FcgRIIa H [2] it was 160 nM; in the test with FcgRIIIa F [3], 120 nM; with FcgRIIIa V [4] it was 14 nM.

B3: H240-Kn113/H240-Hl076/L73-k0 (antibody, human IgG1, kappa)
heavy 1: QDQLVQSGAEVKKPGASVKVSCKASGFNIKDTYIQWVRQAPGQGLEWMGRIDPLRKQTKYREKFEGRVTITADTSTNTAYMELSSLRSEDTAVYYCVRSGREFDYWGQGTLVTVSSASTKGPSVFPLAPSSKSTSGGTAALGCLVKDYFPEPVTVSWNSGALTSGVHTFPAVLQSSGLYSLSSVVTVPSSSLGTQTYICNVNHKPSNTKVDKKVEPKSCDKTHTCPPCPAPEENWGPSVFLFPPKPKDTLMISRTPEVTCVVVDVSDEEPEVKFNWYVDGVEVHNAKTKPREEQYNATYRVVSVLTVLHQDWLNGKEYKCKVSNKALPAPIEKTISKAKGQPREPQVCTLPPSRDELTKNQVSLWCLVKGFYPSDIAVEWESNGQPENNYKTTPPVLDSDGSFFLYSKLTVDKSRWQQGNVFSCSVMHEALHNHYTQKSLSLSP
heavy 2: QDQLVQSGAEVKKPGASVKVSCKASGFNIKDTYIQWVRQAPGQGLEWMGRIDPLRKQTKYREKFEGRVTITADTSTNTAYMELSSLRSEDTAVYYCVRSGREFDYWGQGTLVTVSSASTKGPSVFPLAPSSKSTSGGTAALGCLVKDYFPEPVTVSWNSGALTSGVHTFPAVLQSSGLYSLSSVVTVPSSSLGTQTYICNVNHKPSNTKVDKKVEPKSCDKTHTCPPCPAPELLGGPSVFLFPPKPKDTLMISRTPEVTCVVVDVSHEEPEVKFNWYVDGVEVHNAKTKPREEQYNSTYRVVSVLTVLHQDWLNGKEYKCKVSNDALPMPIEETISKAKGQPREPQVYTLPPSRCELTKNQVSLSCAVKGFYPSDIAVEWESNGQPENNYKTTPPVLDSDGSFFLVSKLTVDKSRWQQGNVFSCSVMHEALHNHYTQKSLSLSP
light: DIQMTQSPSSLSASVGDRVTITCRASQDIHKYIAWYQQKPGQAPRLLIQYTSTLQPGVPSRFSGSGSGTDYTFTISSLQPEDIATYYCLQYEQLRTFGGGTKVEIKRTVAAPSVFIFPPSDEQLKSGTASVVCLLNNFYPREAKVQWKVDNALQSGNSQESVTEQDSKDSTYSLSSTLTLSKADYEKHKVYACEVTHQGLSSPVTKSFNRGEC
notes: Heterodimerized anti-EREG IgG1: Kn113 is H240-Kn072 with Y234E and Y235N
For B3, the Kd in the test with FcgRIa was 0.21 nM; with FcgRIIa R [5], 600 nM; with FcgRIIa H [6], 350 nM; in the test with FcgRIIb, 5000 nM; with FcgRIIIa F [7], 1.7 nM; with FcgRIIIa V [8], 0.62 nM.
